The series concerns the molecule itself. Briefly: NMR spectroscopy of the 20-mer.

This note sets out measurements from patent US20130336983A1 (TRUSTEES OF DARTMOUTH COLLEGE, published 2013).

Consider LHHILMHLTEKAQEVTRKYQ [20-mer representing residues 120-139 of S14 domain III], for which the binding result is “binds”.
